This passage reports Km results from publication PMC6786761.

Substrate in this data set: CN1CCC[C@@H]1c1cccnc1
Briefly: oxygen electrode, initial rates. In kind it is biochemical, Paenarthrobacter nicotinovorans. The settings on record: 0.1 M Na-HEPES pH 8.0, 0.1 M NaCl, 25 °C, 250 μM O2, apparent.

B1: D-6-hydroxynicotine oxidase (DHNO) (Paenarthrobacter nicotinovorans) (protein)
chain: MSSKLATPLSIQGEVIYPDDSGFDAIANIWDGRHLQRPSLIARCLSAGDVAKSVRYACDNGLEISVRSGGHNPNGYATNDGGIVLDLRLMNSIHIDTAGSRARIGGGVISGDLVKEAAKFGLAAVTGMHPKVGFCGLALNGGVGFLTPKYGLASDNILGATLVTATGDVIYCSDDERPELFWAVRGAGPNFGVVTEVEVQLYELPRKMLAGFITWAPSVSELAGLLTSLLDALNEMADHIYPSVFVGVDENRAPSVTVCVGHLGGLDIAERDIARLRGLGRTVSDSIAVRSYDEVVALNAEVGSFEDGMSNLWIDREIAMPNARFAEAIAGNLDKFVSEPASGGSVKLEIEGMPFGNPKRTPARHRDAMGVLALAEWSGAAPGSEKYPELARELDAALLRAGVTTSGFGLLNNNSEVTAEMVAEVYKPEVYCRLAAVKREYDPENRFRHNYNIDPEGS
The term Km denotes the substrate concentration at which the rate is half of its maximum. With B1, the Michaelis-Menten constant (Km) amounted to 840 ± 120 µM.
